Converted amounts (≈) assume the structure as drawn. Where two headings read alike, the source gives them in different places.
Assays:
[1] = target: mu-yPheRS (Thr415Gly or Thr415Ala mutation in the α-subunit) (Saccharomyces cerevisiae, UniProt P15625, T415G); experiment: adenosine triphosphate-pyrophosphate exchange assay, activation of NaI and Phe by mu-yPheRS; type: biochemical
Protocol: The modified yeast PheRS (mu-yPheRS) was prepared by introduction of a Thr415Gly or Thr415Ala mutation in the α-subunit of the synthetase (Datta et al., J. Am. Chem. Soc. 124: 5652, 2002). The kinetics of activation of NaI and Phe by mu-yPheRS were analyzed in vitro via the adenosine triphosphate-pyrophosphate exchange assay. […] In addition, the T415G mutant was generated by four-primer mutagenesis.

[2] = target: T1, mutant yeast PheRS with mutations in N412G, S418C, T415G and S437F (Saccharomyces cerevisiae, UniProt P15625, N412G/S418C/S437F/T415G); experiment: yeast PheRS library GFP/FACS screening, incorporation at UUU codon; type: cell-based; details: mutant yPheRS N412G, S437F after two cycles of screening
T1 construct: expressed in transfected cells; host or cells: E. coli AFW and DHF cells carrying pQE9_GFP6/GFP9_yPheRS library plasmids
From the text: For example, in one embodiment, a yeast PheRS library is subjected to double sieve screening in order to detect high levels of incorporation of a non-natural amino acid or misincorporation of natural amino acids other than Phe will lead to severe misfolding or unfolding of GFP. The yeast PheRS library cells are thus subjected to high-throughput screening based on flow cytommetry analysis (FACS). First, the yeast PheRS library cells are expressed in the presence of 2NaI and low fluorescent cells indicating higher incorporation of either 2NaI or other natural amino acids are collected by FACS. Next, the yeast PheRS library cells are expressed without 2NaI. Bright cells are collected in order to eliminate yeast PheRS variants that can misincorporate other natural amino acids.
Library construction was performed in two steps as well. […]
The library was transformed into chemical-competent AFW and DHF E. coli cells. […] Glycerol stocks of the library were expressed as is standard in the art.
After expression of GFP for 3 hours, 1 mL of cells (based on OD600 of 1.0) were washed with PBS and diluted in distilled water, then subjected to flow cytometric analysis (MoFlo cell Sorter®, DakoCytomation, Fort Collins, Colo.), using an excitation wavelength of 488 nm, emission of 525 nm, and a cut-off filter of 495 nm. […] Data were analyzed with Summit software (DakoCytomation). […]

Escherichia coli = details: E. coli cells, cited from earlier work
[3] = target: (T415A) yeast phenylalanine aminoacyl tRNA synthetase (PheRS) (Saccharomyces cerevisiae, UniProt P15625, T415A); type: biochemical
Protocol: The amino acid-dependent ATP-PP; exchange reaction was used to evaluate the activation of amino acid analogs by yPheRS as described in the above Examples. Briefly, a 200 microliter aliquot of reaction buffer contains 50 mM HEPES (pH 7.6), 20 nM MgCl2, 1 mM DTT, 2 mM ATP, and 2 mM ^32P-pyrophosphate (PPi) with specific activity of 10-50 Ci/mol. Depending on the activity of analogs by the synthetase, the amino acid concentration varied from 10 microM to 2.5 mM and enzyme concentration varied from 10 nM to 100 nM. Aliquots of 20 microliters were removed from the reaction solution at various time points and quenched into 500 microliters of buffer solution containing 200 mN NaPPi, 7% w/v HclO4, and 3% w/v activated charcoal. The charcoal was spun down and washed twice with 500 microliters of 10 mM NaPP; and 0.5% HClO4 solution. The radio-labeled ATP absorbed into the charcoal was quantified via liquid scintillation methods. The specificity constants were calculated by non linear regression fit for the data to a Michaelis Menten model.

[4] = target: modified yeast PheRS (T415G) and tRNA^Phe with an amber suppressor (Saccharomyces cerevisiae, UniProt P15625, T415G); type: cell-based; details: FIG. 13 mass spectra
Protocol: A yeast PheRS library (using green fluorescent protein or GFP) was screened to identify PheRS mutations that enable the incorporation of NaI.
Briefly, GFP was ligated into a vector containing the mutant T415G or wild type yeast PheRS gene according to standard procedures. The mutant yeast amber suppressor tRNA (yRNA^PheAAA) was constitutively expressed under control of Ipp promoter and transformed into a Phe/Trp double E. coli auxotrophic strain AFW. Cells were grown in M9 minimal medium supplemented with glucose, thiamin, MgSO4, CaCl2, 20 amino acids (at 25 mg/L), antibiotics (35 μg/mL of kanamycin and 100 μg/mL of ampicillin). When cells reached an OD600 of 0.8-1.0, cells were pelleted and washed twice by ice-cold 0.9% NaCl and shifted to expression media supplemented with 18 amino acids (at 20 mg/L) and various concentrations of phenylalanine, tryptophan and 2NaI. Protein expression was induced by IPTG.

[5] = tested on: N[C@@H](Cc1c[nH]c2ccccc12)C(=O)O; experiment: purified protein, by the assay type; details: pH 7.6
[6] = tested on: N[C@@H](Cc1ccc2ccccc2c1)C(=O)O; experiment: purified protein, by the assay type; details: pH 7.6
N[C@@H](Cc1ccccc1)C(=O)O = experiment: purified protein, by the assay type; details: pH 7.6
[7] = substrate: N[C@@H](Cc1ccccc1)C(=O)O; experiment: ATP-PPi exchange of amino acids by wild type yPheRS, Example 3; type: biochemical, Saccharomyces cerevisiae; details: other: enzyme wild type; pH 7.6
Protocol: The amino acid dependent ATP-PP; exchange reaction was used to evaluate the activation of non-natural amino acids by yPheRS. The assay was performed in 200 mincroliters of reaction buffer containing 50 mM HEPES (pH=7.6), 20 mM MgCl2, 1 mM DTT, 2 mM ATP and 2 mM [^32P]-PPi with specific activity of 0.2-0.5 TBq/mol. Depending on the activity of the various non-natural amino acids with the synthetase, the amino acid concentration varied from 10 microM to 5 mM and enzyme concentration varied from 10 nM to 100 nM. Aliquots of 20 microliters were removed from the reaction solution at various time points and quenched into 500 microliters of buffer solution containing 200 mM NaPPi, 7% w/v HClO4 and 3% w/v activated charcoal. The charcoal was spun down and washed twice with 500 microliters of 10 mM NaPPi and 0.5% HclO4 solution. The radio-labeled ATP absorbed into the charcoal was quantified via liquid scintillation methods. The specificity constants were calculated by nonlinear regression fit of the data to a Michaelis Menten model. The kinetic parameters for the ATP-PPi exchange of amino acids by the yPheRS (T415G), wild type yPheRS, and yPheRS_naph variant are shown in the table below.

Sequence of mu-yPheRS (Thr415Gly or Thr415Ala mutation in the α-subunit) (P15625 2-503 T415G): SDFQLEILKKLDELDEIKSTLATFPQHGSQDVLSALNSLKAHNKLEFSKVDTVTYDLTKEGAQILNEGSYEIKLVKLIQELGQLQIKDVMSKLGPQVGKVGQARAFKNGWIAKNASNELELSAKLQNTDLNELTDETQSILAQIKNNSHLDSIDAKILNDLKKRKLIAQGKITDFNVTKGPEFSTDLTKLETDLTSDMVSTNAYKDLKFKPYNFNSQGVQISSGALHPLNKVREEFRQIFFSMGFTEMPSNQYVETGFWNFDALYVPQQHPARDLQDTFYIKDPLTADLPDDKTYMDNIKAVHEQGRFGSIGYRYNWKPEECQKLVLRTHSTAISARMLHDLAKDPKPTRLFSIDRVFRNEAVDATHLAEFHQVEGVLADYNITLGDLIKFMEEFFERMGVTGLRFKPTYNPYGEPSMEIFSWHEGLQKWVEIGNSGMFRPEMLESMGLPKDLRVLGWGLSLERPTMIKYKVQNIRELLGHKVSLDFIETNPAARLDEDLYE
Sequence of mu-yPheRS (Thr415Gly or Thr415Ala mutation in the α-subunit) (P15624 2-595, further chain): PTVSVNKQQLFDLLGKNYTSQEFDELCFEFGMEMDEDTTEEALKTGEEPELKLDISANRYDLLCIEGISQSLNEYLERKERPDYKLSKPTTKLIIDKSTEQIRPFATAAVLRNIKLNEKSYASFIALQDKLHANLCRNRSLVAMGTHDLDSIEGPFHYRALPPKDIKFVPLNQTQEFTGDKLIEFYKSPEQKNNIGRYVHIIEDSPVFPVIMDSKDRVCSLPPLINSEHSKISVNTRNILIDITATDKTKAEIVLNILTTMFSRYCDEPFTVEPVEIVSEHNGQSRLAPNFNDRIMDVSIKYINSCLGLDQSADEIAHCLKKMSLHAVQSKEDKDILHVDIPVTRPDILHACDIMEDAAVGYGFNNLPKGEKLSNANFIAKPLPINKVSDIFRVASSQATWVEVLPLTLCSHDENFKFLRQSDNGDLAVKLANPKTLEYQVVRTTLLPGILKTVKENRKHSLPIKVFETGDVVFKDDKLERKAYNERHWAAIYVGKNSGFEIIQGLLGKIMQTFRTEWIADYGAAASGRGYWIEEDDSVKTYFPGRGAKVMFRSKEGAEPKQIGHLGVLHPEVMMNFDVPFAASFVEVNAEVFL
Sequence of (T415A) yeast phenylalanine aminoacyl tRNA synthetase (PheRS) (P15624 whole entry): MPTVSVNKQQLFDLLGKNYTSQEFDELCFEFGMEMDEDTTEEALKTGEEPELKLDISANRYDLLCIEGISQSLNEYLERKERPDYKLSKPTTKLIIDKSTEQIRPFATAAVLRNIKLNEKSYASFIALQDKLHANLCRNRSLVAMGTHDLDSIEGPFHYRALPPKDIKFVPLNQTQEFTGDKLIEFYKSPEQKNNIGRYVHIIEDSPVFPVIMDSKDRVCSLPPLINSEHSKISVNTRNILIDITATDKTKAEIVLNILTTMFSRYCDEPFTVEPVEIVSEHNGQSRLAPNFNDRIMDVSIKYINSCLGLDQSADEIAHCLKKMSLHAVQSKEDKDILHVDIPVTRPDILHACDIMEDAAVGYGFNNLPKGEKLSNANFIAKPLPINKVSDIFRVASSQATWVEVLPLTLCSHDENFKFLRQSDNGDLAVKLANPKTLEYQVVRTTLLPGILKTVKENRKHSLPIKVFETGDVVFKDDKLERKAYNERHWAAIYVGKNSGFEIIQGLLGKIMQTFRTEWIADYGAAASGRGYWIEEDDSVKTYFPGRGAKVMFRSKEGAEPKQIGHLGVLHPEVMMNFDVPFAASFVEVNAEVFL
Sequence of (T415A) yeast phenylalanine aminoacyl tRNA synthetase (PheRS) (P15625 whole entry T415A): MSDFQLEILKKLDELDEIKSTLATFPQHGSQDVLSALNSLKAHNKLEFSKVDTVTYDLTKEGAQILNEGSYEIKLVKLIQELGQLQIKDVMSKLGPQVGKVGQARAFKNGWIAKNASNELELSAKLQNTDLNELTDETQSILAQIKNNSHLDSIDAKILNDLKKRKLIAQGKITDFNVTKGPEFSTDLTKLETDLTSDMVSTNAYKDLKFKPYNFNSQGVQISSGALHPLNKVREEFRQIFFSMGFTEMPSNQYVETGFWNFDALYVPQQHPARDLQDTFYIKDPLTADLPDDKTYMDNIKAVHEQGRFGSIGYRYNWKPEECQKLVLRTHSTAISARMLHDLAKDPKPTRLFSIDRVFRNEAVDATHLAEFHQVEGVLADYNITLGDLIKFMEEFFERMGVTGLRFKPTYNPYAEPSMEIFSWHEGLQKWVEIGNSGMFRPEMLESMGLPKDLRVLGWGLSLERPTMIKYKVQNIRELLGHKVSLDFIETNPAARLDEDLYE

For N[C@@H](Cc1ccc2ccccc2c1)C(=O)O [2Nal, 3-(2-naphthyl)alanine], the “specificity constant (kcat/KM), fold larger than that for Phe” value [1] was 8 fold and the “incorporation at UUU codon” value [2] was “around 90%”.

For CC1(C)S[C@@H]2[C@H](NC(=O)[C@H](N)c3ccccc3)C(=O)N2[C@H]1C(=O)O [ampicillin], the IC50 (Escherichia coli; SctRNAGInCUA coexpressed with ScGInRS) is listed as “about 500 μg/mL” and the IC50 (Escherichia coli; only SctRNAGInCUA expressed) is listed as 20 µg/mL (≈ 57.2 µM).

With N[C@@H](Cc1ccc(Br)cc1)C(=O)O [bromophenylalanine, p-bromo-phenylalanine] the “preference for bromophenylalanine than for naturally occurring phenylalanine” value [3] was 5 fold.

With C#Cc1ccc(C[C@H](N)C(=O)O)cc1 [p-ethynyl-phenylalanine] the “incorporation into a test protein” value [4] was “incorporated into a test protein”.

For “yPheRS (T415G) (Saccharomyces cerevisiae S288C; T415G)”, the Km ([5]; other: enzyme T415G) was 2.83 ± 1.6 µM, the kcat ([5]; other: enzyme T415G) was 0.153 ± 0.003 s⁻¹ and the kcat/Km ([5]; other: enzyme T415G) was 63200 ± 34600 M⁻¹ s⁻¹. It also gave a Km ([6]; other: enzyme T415G) of 7.03 ± 0.14 µM, a kcat ([6]; other: enzyme T415G) of 0.208 ± 0.04 s⁻¹ and a kcat/Km ([6]; other: enzyme T415G) of 29500 ± 5850 M⁻¹ s⁻¹. For the same molecule, the Km (N[C@@H](Cc1ccccc1)C(=O)O; other: enzyme T415G) was 55 ± 14 µM, the kcat (N[C@@H](Cc1ccccc1)C(=O)O; other: enzyme T415G) was 0.202 ± 0.11 s⁻¹ and the kcat/Km (N[C@@H](Cc1ccccc1)C(=O)O; other: enzyme T415G) was 3510 ± 1130 M⁻¹ s⁻¹.

With “yPheRS_naph variant (Saccharomyces cerevisiae S288C; N412G/S418C/S437F/T415G)” the Km ([5]; other: enzyme naph) was 1424 ± 597 µM, the kcat ([5]; other: enzyme naph) was 0.0035 ± 0.0009 s⁻¹ and the kcat/Km ([5]; other: enzyme naph) was 2.52 ± 0.44 M⁻¹ s⁻¹. For the same molecule, the Km ([6]; other: enzyme naph) was 2030 ± 691 µM, the kcat ([6]; other: enzyme naph) was 0.03 ± 0.018 s⁻¹ and the kcat/Km ([6]; other: enzyme naph) was 14.5 ± 4.22 M⁻¹ s⁻¹. For the same molecule, the Km (N[C@@H](Cc1ccccc1)C(=O)O; other: enzyme naph) was 11010 ± 2688 µM, the kcat (N[C@@H](Cc1ccccc1)C(=O)O; other: enzyme naph) was 0.0095 ± 0.0021 s⁻¹ and the kcat/Km (N[C@@H](Cc1ccccc1)C(=O)O; other: enzyme naph) was 0.855 ± 0.007 M⁻¹ s⁻¹.

B1: wild type yPheRS (Saccharomyces cerevisiae S288C) (protein)
chain: MSDFQLEILKKLDELDEIKSTLATFPQHGSQDVLSALNSLKAHNKLEFSKVDTVTYDLTKEGAQILNEGSYEIKLVKLIQELGQLQIKDVMSKLGPQVGKVGQARAFKNGWIAKNASNELELSAKLQNTDLNELTDETQSILAQIKNNSHLDSIDAKILNDLKKRKLIAQGKITDFNVTKGPEFSTDLTKLETDLTSDMVSTNAYKDLKFKPYNFNSQGVQISSGALHPLNKVREEFRQIFFSMGFTEMPSNQYVETGFWNFDALYVPQQHPARDLQDTFYIKDPLTADLPDDKTYMDNIKAVHEQGRFGSIGYRYNWKPEECQKLVLRTHSTAISARMLHDLAKDPKPTRLFSIDRVFRNEAVDATHLAEFHQVEGVLADYNITLGDLIKFMEEFFERMGVTGLRFKPTYNPYTEPSMEIFSWHEGLQKWVEIGNSGMFRPEMLESMGLPKDLRVLGWGLSLERPTMIKYKVQNIRELLGHKVSLDFIETNPAARLDEDLYE
B1 showed a Km [7] of 3.85 ± 0.99 µM, a kcat [7] of 0.181 ± 0.011 s⁻¹ and a kcat/Km [7] of 51000 ± 22700 M⁻¹ s⁻¹.
